Experiments:
[1] = target: c-Src SH2; assay: SH2 binding enrichment of the phosphorylated peptide, bacterial display (enrichment ratio); higher = better substrate or ligand; peptides without Tyr show the background
[2] = target: Grb2 SH2 (UniProt P62993); assay: as above
[3] = target: SHP2-C SH2; assay: as above
[4] = tested on: c-Src; assay: phosphorylation enrichment, bacterial display (enrichment ratio); higher = better substrate or ligand; peptides without Tyr show the background
[5] = target: Fyn (UniProt P06241); assay: as above
[6] = tested on: Fer (mouse); assay: as above
[7] = target: MERTK (UniProt Q12866); assay: as above
Sequence of MERTK (Q12866 whole entry, looked up): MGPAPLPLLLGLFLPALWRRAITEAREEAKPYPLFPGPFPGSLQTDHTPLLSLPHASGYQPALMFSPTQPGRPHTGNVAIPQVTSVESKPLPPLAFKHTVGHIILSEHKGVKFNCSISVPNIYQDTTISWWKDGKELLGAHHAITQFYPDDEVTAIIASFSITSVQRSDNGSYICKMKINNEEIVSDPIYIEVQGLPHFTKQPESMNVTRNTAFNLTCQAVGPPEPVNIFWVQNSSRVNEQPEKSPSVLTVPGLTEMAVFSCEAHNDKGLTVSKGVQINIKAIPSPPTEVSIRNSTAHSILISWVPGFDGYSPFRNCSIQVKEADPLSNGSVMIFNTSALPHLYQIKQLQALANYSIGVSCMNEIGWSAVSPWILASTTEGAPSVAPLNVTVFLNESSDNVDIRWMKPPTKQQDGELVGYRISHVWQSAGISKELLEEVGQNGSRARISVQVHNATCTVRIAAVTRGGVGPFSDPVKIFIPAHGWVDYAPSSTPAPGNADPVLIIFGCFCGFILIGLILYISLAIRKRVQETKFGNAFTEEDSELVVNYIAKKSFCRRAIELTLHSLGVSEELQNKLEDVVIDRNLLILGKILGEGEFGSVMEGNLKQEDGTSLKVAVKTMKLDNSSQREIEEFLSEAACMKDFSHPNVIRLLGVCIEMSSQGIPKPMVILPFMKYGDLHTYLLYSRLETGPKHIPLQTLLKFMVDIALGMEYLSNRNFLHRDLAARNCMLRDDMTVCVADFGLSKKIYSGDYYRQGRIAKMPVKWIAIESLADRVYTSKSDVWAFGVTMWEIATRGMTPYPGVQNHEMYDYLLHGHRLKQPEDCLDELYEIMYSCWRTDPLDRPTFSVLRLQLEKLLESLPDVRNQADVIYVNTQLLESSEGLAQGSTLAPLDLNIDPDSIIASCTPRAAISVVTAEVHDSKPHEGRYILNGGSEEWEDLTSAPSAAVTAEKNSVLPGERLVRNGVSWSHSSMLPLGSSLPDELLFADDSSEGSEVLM

[8] = target: FGFR1 (UniProt P11362); assay: as above
Sequence of FGFR1 (P11362 whole entry, looked up): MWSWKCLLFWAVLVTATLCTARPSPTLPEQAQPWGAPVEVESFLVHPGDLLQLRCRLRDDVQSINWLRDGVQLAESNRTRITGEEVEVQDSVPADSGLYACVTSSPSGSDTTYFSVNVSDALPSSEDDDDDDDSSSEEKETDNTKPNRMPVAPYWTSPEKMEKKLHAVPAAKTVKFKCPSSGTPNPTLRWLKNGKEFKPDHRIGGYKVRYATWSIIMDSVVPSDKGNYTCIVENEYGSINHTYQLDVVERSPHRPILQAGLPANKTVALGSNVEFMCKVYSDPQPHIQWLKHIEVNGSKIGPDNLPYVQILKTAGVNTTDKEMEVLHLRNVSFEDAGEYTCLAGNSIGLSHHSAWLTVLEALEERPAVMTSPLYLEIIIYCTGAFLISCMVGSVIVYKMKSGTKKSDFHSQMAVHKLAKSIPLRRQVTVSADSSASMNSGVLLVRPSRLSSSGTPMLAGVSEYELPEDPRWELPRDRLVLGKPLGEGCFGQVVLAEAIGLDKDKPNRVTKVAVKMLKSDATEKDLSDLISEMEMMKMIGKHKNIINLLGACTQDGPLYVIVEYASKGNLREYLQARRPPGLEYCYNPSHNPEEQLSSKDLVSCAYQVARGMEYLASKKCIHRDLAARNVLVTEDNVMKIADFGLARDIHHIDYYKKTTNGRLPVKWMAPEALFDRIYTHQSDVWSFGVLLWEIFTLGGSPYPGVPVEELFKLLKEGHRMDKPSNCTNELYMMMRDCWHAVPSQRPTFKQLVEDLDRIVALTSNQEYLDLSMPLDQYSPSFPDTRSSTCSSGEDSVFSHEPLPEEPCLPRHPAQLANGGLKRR

[9] = target: EPHB2 (UniProt P29323); assay: as above
Sequence of EPHB2 (P29323 whole entry, looked up): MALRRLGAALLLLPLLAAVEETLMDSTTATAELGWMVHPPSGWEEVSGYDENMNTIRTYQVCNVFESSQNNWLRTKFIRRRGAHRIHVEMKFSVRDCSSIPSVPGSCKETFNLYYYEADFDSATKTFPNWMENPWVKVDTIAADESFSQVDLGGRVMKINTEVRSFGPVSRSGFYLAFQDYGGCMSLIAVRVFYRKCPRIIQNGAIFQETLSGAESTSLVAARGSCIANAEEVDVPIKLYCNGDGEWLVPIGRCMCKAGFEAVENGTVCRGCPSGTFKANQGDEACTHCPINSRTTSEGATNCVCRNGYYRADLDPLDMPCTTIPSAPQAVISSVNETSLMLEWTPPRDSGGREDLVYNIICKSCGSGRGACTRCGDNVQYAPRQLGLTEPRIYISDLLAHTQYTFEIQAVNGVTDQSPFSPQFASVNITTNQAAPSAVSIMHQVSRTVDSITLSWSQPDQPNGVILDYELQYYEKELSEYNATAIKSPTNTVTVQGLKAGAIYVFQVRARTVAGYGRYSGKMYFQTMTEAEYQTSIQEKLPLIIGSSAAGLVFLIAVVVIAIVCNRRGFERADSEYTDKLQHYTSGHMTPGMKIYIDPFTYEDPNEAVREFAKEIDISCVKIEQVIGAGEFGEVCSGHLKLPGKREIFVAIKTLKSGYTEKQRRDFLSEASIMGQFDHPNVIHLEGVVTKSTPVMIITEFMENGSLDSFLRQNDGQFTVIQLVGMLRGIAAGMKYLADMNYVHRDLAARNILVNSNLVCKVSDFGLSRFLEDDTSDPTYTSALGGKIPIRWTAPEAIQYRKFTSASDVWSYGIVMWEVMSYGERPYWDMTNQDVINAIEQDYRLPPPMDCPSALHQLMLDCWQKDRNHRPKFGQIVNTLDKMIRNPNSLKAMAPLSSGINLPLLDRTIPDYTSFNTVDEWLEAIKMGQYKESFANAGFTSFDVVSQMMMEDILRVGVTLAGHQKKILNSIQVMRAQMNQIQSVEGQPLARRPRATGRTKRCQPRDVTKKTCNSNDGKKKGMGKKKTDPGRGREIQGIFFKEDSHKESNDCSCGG

[10] = target: Hck (UniProt P08631); assay: as above
[11] = target: FGFR3 (UniProt P22607); assay: as above
[12] = target: Jak2 (UniProt O60674); assay: as above
Sequence of Jak2 (O60674 whole entry, looked up): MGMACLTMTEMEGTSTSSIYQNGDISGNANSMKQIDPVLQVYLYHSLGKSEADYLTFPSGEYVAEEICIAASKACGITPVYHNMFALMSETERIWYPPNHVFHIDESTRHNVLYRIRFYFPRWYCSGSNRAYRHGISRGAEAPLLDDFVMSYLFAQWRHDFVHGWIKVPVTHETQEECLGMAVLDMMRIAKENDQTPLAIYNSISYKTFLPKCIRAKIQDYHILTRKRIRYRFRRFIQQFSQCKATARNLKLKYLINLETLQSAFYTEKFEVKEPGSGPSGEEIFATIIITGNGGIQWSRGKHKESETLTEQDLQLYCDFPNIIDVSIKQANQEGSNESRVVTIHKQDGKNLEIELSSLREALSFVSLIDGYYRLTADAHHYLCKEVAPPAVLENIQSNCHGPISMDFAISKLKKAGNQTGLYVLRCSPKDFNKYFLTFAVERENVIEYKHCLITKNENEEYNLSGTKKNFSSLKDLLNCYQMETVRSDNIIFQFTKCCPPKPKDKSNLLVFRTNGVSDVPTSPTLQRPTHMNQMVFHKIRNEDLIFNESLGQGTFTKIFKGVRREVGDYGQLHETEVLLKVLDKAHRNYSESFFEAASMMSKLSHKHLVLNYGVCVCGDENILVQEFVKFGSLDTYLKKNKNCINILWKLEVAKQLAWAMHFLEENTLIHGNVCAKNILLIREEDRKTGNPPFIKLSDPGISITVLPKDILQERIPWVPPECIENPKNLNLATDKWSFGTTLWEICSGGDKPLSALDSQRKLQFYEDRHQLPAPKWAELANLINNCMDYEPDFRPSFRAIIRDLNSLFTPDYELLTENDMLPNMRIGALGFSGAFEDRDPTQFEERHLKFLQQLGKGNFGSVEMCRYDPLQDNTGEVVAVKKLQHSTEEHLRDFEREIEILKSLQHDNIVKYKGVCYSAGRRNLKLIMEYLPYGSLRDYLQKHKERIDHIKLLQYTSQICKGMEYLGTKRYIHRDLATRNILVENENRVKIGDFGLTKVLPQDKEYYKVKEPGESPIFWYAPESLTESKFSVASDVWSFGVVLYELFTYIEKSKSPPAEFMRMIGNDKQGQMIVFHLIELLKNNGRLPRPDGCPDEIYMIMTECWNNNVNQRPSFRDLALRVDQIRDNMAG

[13] = target: EPHB1 (UniProt P54762); assay: as above
[14] = tested on: AncSZ; assay: as above
[15] = tested on: c-Abl (mouse); assay: as above
[16] = target: Fes (UniProt P07332); assay: as above
Sequence of Fes (P07332 whole entry, looked up, the tested form may be a part): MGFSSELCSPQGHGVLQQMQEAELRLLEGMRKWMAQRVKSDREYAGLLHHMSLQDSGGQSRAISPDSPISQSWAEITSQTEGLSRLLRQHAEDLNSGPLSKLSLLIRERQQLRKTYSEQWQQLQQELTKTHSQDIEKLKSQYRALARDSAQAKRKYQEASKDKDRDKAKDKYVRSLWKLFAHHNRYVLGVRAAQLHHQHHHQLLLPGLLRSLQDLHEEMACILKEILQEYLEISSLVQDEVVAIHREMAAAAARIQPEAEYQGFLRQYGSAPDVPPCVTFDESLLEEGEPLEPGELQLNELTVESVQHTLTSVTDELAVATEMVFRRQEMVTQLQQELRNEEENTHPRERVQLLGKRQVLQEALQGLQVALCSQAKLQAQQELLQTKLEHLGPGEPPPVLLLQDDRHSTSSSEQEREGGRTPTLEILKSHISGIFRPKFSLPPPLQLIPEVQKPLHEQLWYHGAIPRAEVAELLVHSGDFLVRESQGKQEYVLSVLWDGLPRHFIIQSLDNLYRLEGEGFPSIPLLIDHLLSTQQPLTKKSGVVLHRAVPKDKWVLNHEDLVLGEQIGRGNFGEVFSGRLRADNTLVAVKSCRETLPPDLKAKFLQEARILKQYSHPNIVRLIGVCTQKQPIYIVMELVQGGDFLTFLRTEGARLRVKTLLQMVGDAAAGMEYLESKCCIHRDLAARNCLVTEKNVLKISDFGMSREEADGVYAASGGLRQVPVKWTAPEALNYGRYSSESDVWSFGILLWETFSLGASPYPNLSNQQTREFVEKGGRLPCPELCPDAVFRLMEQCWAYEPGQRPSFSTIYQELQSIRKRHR
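For SH2 binding enrichment of the phosphorylated peptide, bacterial display in this document: peptide library displayed on the E. coli surface as eCPX fusions, selected cells deep-sequenced, score is each peptide's frequency after selection divided by its frequency in the input.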
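For phosphorylation enrichment, bacterial display in this document: 11-residue human phosphosite peptides and single-mutation variants displayed on the E. coli surface, counted by deep sequencing, each peptide's frequency after selection divided by its frequency in the unselected input library; frequency after pTyr selection over input frequency; kinase dosed for 20-30% of maximal phosphorylation in three min.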

| Sequence | SH2 binding enrichment [1] | SH2 binding enrichment [2] | SH2 binding enrichment [3] | phosphorylation enrichment [4] | phosphorylation enrichment [5] | phosphorylation enrichment [6] | phosphorylation enrichment [7] | phosphorylation enrichment [8] | phosphorylation enrichment [9] | phosphorylation enrichment [10] | phosphorylation enrichment [11] | phosphorylation enrichment [12] | phosphorylation enrichment [13] | phosphorylation enrichment [14] | phosphorylation enrichment [15] | phosphorylation enrichment [16] |
| --- | --- | --- | --- | --- | --- | --- | --- | --- | --- | --- | --- | --- | --- | --- | --- | --- |
| NGTVTYAIIAG [CDH23_Y1672_V1675I] | 1.43 | 0.78 | 16.6 | 1.33 | 0.968 | 0.503 | 2.68 | 0.628 | 1.12 | 1.31 | 0.746 | 0.989 | 2.83 | 1.1 | 0.892 | 1.28 |
| TFMKQYPKVFL [CNBD1_Y70] | 0.559 | 0.836 | 0.811 | 0.486 | 0.525 | 0.436 | 0.364 | 0.55 | 0.541 | 0.473 | 0.56 | 0.591 | 0.54 | 0.82 | 0.521 | 1.09 |
| EEKKKYFDTKI [CASP5_Y103_YF] | 0.462 | 0.821 | 0.698 | 0.402 | 0.374 | 0.457 | 0.332 | 0.447 | 0.445 | 0.559 | 0.519 | 0.665 | 0.429 | 0.928 | 0.657 | 0.954 |
| QYKDKYLAKHN [CASK_Y712] | 1.02 | 0.648 | 0.798 | 0.308 | 0.436 | 0.349 | 0.283 | 0.526 | 0.402 | 0.207 | 0.663 | 0.605 | 0.501 | 0.401 | 0.458 | 0.927 |
| FGPPQYNIQFS [ERBB2IP_Y977_YF] | 0.592 | 0.907 | 0.806 | 0.395 | 0.364 | 0.342 | 0.311 | 0.447 | 0.44 | 0.405 | 0.508 | 0.741 | 0.524 | 0.768 | 0.641 | 0.779 |
| VKPHRYRPGTV [H3-5_Y41] | 0.486 | 0.781 | 0.671 | 0.434 | 0.386 | 0.362 | 0.456 | 0.407 | 0.337 | 0.328 | 0.346 | 0.494 | 0.378 | 0.513 | 0.613 | 0.573 |
| VRVQLYDPDFM [CYP4A22_Y100_Y104F] | 0.536 | 0.972 | 0.67 | 0.579 | 0.419 | 0.579 | 1.08 | 0.45 | 0.631 | 0.561 | 0.683 | 1.07 | 0.717 | 1.06 | 0.734 | 1.17 |
| RPDSPYSRLHD [DOK2_Y271_P274L] | 2.87 | 0.796 | 1.1 | 0.884 | 0.464 | 0.65 | 0.85 | 0.552 | 0.467 | 0.614 | 0.657 | 3.09 | 0.471 | 0.916 | 0.957 | 0.983 |
| SIKDKYVTAFF [KCNH2_Y611_L615F_YF] | 0.589 | 1.04 | 0.848 | 0.372 | 0.399 | 0.483 | 0.369 | 0.403 | 0.44 | 0.4 | 0.489 | 0.526 | 0.363 | 0.582 | 0.635 | 0.731 |

Now from value to sequence, other results behind:

| SH2 binding enrichment [1] | SH2 binding enrichment [2] | SH2 binding enrichment [3] | Sequence | phosphorylation enrichment [4] | phosphorylation enrichment [5] | phosphorylation enrichment [6] | phosphorylation enrichment [7] | phosphorylation enrichment [8] | phosphorylation enrichment [9] | phosphorylation enrichment [10] | phosphorylation enrichment [11] | phosphorylation enrichment [12] | phosphorylation enrichment [13] | phosphorylation enrichment [14] | phosphorylation enrichment [15] | phosphorylation enrichment [16] |
| --- | --- | --- | --- | --- | --- | --- | --- | --- | --- | --- | --- | --- | --- | --- | --- | --- |
| 1.53 | 0.889 | 1.2 | HLDRSYSYSYS [PEAR1_Y890_R885H] | 0.474 | 0.424 | 0.401 | 0.583 | 0.558 | 0.477 | 0.424 | 0.66 | 1.02 | 0.603 | 0.718 | 0.49 | 0.583 |
| 0.563 | 0.731 | 0.492 | CGQDPYIRELG [UROS_Y19] | 0.433 | 0.535 | 0.534 | 0.427 | 0.497 | 0.53 | 0.569 | 0.707 | 0.971 | 0.674 | 1.05 | 0.877 | 1.27 |
| 0.483 | 0.599 | 0.746 | RRGTRYMFSRP [RPL21_Y13] | 0.922 | 0.829 | 0.887 | 0.837 | 0.859 | 0.768 | 0.853 | 0.554 | 0.625 | 0.782 | 0.952 | 0.971 | 0.594 |
| 0.845 | 0.812 | 0.613 | GRLVEYDIDEV [SMS_Y134] | 0.563 | 0.508 | 0.658 | 0.489 | 0.494 | 1.05 | 0.549 | 0.771 | 1.45 | 0.709 | 1.28 | 0.902 | 1.48 |
| 0.474 | 1.03 | 0.624 | HLNLTYRILSF [MMP23B_Y95_F91L] | 0.491 | 0.694 | 0.605 | 0.42 | 0.645 | 0.664 | 0.54 | 1.27 | 1.51 | 0.673 | 1.43 | 1.08 | 1.68 |
| 1.16 | 1.18 | 1.37 | FYLGAYDRFLP [SLC22A5_Y486_V481F] | 3.62 | 2.4 | 1.22 | 4.1 | 0.712 | 2.06 | 3.38 | 0.831 | 1.11 | 0.938 | 1.37 | 0.829 | 1.28 |
| 0.431 | 0.884 | 0.62 | RAEAQYLLVSN [LRIG1_Y1054] | 0.648 | 0.466 | 0.43 | 0.681 | 2.61 | 0.551 | 0.493 | 1.78 | 0.933 | 0.639 | 0.897 | 0.665 | 0.761 |
| 0.403 | 0.767 | 0.753 | SREDIYKRNIE [PDE4DIP_Y45] | 0.405 | 0.591 | 0.431 | 0.366 | 0.5 | 0.553 | 0.603 | 0.585 | 0.7 | 0.422 | 0.659 | 0.654 | 0.81 |

Source: the supplement of paper PMC10065799, “High-throughput profiling of sequence recognition by tyrosine kinases and SH2 domains using bacterial peptide display” (eLife, 2023)
